Data: article PMC4113749 (Toxins, 2014)

B1: TcdA^1–1874-EGFP (domain or fragment)
chain: MSLISKEELIKLAYSIRPRENEYKTILTNLDEYNKLTTNNNENKYLQLKKLNESIDVFMNKYKTSSRNRALSNLKKDILKEVILIKNSNTSPVEKNLHFVWIGGEVSDIALEYIKQWADINAEYNIKLWYDSEAFLVNTLKKAIVESSTTEALQLLEEEIQNPQFDNMKFYKKRMEFIYDRQKRFINYYKSQINKPTVPTIDDIIKSHLVSEYNRDETVLESYRTNSLRKINSNHGIDIRANSLFTEQELLNIYSQELLNRGNLAAASDIVRLLALKNFGGVYLDVDMLPGIHSDLFKTISRPSSIGLDRWEMIKLEAIMKYKKYINNYTSENFDKLDQQLKDNFKLIIESKSEKSEIFSKLENLNVSDLEIKIAFALGSVINQALISKQGSYLTNLVIEQVKNRYQFLNQHLNPAIESDNNFTDTTKIFHDSLFNSATAENSMFLTKIAPYLQVGFMPEARSTISLSGPGAYASAYYDFINLQENTIEKTLKASDLIEFKFPENNLSQLTEQEINSLWSFDQASAKYQFEKYVRDYTGGSLSEDNGVDFNKNTALDKNYLLNNKIPSNNVEEAGSKNYVHYIIQLQGDDISYEATCNLFSKNPKNSIIIQRNMNESAKSYFLSDDGESILELNKYRIPERLKNKEKVKVTFIGHGKDEFNTSEFARLSVDSLSNEISSFLDTIKLDISPKNVEVNLLGCNMFSYDFNVEETYPGKLLLSIMDKITSTLPDVNKNSITIGANQYEVRINSEGRKELLAHSGKWINKEEAIMSDLSSKEYIFFDSIDNKLKAKSKNIPGLASISEDIKTLLLDASVSPDTKFILNNLKLNIESSIGDYIYYEKLEPVKNIIHNSIDDLIDEFNLLENVSDELYELKKLNNLDEKYLISFEDISKNNSTYSVRFINKSNGESVYVETEKEIFSKYSEHITKEISTIKNSIITDVNGNLLDNIQLDHTSQVNTLNAAFFIQSLIDYSSNKDVLNDLSTSVKVQLYAQLFSTGLNTIYDSIQLVNLISNAVNDTINVLPTITEGIPIVSTILDGINLGAAIKELLDEHDPLLKKELEAKVGVLAINMSLSIAATVASIVGIGAEVTIFLLPIAGISAGIPSLVNNELILHDKATSVVNYFNHLSESKKYGPLKTEDDKILVPIDDLVISEIDFNNNSIKLGTCNILAMEGGSGHTVTGNIDHFFSSPSISSHIPSLSIYSAIGIETENLDFSKKIMMLPNAPSRVFWWETGAVPGLRSLENDGTRLLDSIRDLYPGKFYWRFYAFFDYAITTLKPVYEDTNIKIKLDKDTRNFIMPTITTNEIRNKLSYSFDGAGGTYSLLLSSYPISTNINLSKDDLWIFNIDNEVREISIENGTIKKGKLIKDVLSKIDINKNKLIIGNQTIDFSGDIDNKDRYIFLTCELDDKISLIIEINLVAKSYSLLLSGDKNYLISNLSNTIEKINTLGLDSKNIAYNYTDESNNKYFGAISKTSQKSIIHYKKDSKNILEFYNDSTLEFNSKDFIAEDINVFMKDDINTITGKYYVDNNTDKSIDFSISLVSKNQVKVNGLYLNESVYSSYLDFVKNSDGHHNTSNFMNLFLDNISFWKLFGFENINFVIDKYFTLVGKTNLGYVEFICDNNKNIDIYFGEWKTSSSKSTIFSGNGRNVVVEPIYNPDTGEDISTSLDFSYEPLYGIDRYINKVLIAPDLYTSLININTNYYSNEYYPEIIVLNPNTFHKKVNINLDSSSFEYKWSTEGSDFILVRYLEESNKKILQKIRIKGILSNTQSFNKMSIDFKDIKKLSLGYIMSNFKSFNSENELDRDHLGFKIIDNKTYYYDEDSKLVKGLININNSLFYFDPIEFNLVTGWQTINGKKYYFDINTGAALTS
B2: isolated TcdA CROPs (TcdA^1875–2710) (domain or fragment)
chain: YKIINGKHFYFNNDGVMQLGVFKGPDGFEYFAPANTQNNNIEGQAIVYQSKFLTLNGKKYYFDNNSKAVTGWRIINNEKYYFNPNNAIAAVGLQVIDNNKYYFNPDTAIISKGWQTVNGSRYYFDTDTAIAFNGYKTIDGKHFYFDSDCVVKIGVFSTSNGFEYFAPANTYNNNIEGQAIVYQSKFLTLNGKKYYFDNNSKAVTGLQTIDSKKYYFNTNTAEAATGWQTIDGKKYYFNTNTAEAATGWQTIDGKKYYFNTNTAIASTGYTIINGKHFYFNTDGIMQIGVFKGPNGFEYFAPANTDANNIEGQAILYQNEFLTLNGKKYYFGSDSKAVTGWRIINNKKYYFNPNNAIAAIHLCTINNDKYYFSYDGILQNGYITIERNNFYFDANNESKMVTGVFKGPNGFEYFAPANTHNNNIEGQAIVYQNKFLTLNGKKYYFDNDSKAVTGWQTIDGKKYYFNLNTAEAATGWQTIDGKKYYFNLNTAEAATGWQTIDGKKYYFNTNTFIASTGYTSINGKHFYFNTDGIMQIGVFKGPNGFEYFAPANTDANNIEGQAILYQNKFLTLNGKKYYFGSDSKAVTGLRTIDGKKYYFNTNTAVAVTGWQTINGKKYYFNTNTSIASTGYTIISGKHFYFNTDGIMQIGVFKGPDGFEYFAPANTDANNIEGQAIRYQNRFLYLHDNIYYFGNNSKAATGWVTIDGNRYYFEPNTAMGANGYKTIDNKNFYFRNGLPQIGVFKGSNGFEYFAPANTDANNIEGQAIRYQNRFLHLLGKIYYFGNNSKAVTGWQTINGKVYYFMPDTAMAAAGGLFEIDGVIYFFGVDGVKAPGIYG
B3: TcdA^1102–1847 (intermediate domain of toxin A) (domain or fragment)
chain: SAGIPSLVNNELILHDKATSVVNYFNHLSESKKYGPLKTEDDKILVPIDDLVISEIDFNNNSIKLGTCNILAMEGGSGHTVTGNIDHFFSSPSISSHIPSLSIYSAIGIETENLDFSKKIMMLPNAPSRVFWWETGAVPGLRSLENDGTRLLDSIRDLYPGKFYWRFYAFFDYAITTLKPVYEDTNIKIKLDKDTRNFIMPTITTNEIRNKLSYSFDGAGGTYSLLLSSYPISTNINLSKDDLWIFNIDNEVREISIENGTIKKGKLIKDVLSKIDINKNKLIIGNQTIDFSGDIDNKDRYIFLTCELDDKISLIIEINLVAKSYSLLLSGDKNYLISNLSNTIEKINTLGLDSKNIAYNYTDESNNKYFGAISKTSQKSIIHYKKDSKNILEFYNDSTLEFNSKDFIAEDINVFMKDDINTITGKYYVDNNTDKSIDFSISLVSKNQVKVNGLYLNESVYSSYLDFVKNSDGHHNTSNFMNLFLDNISFWKLFGFENINFVIDKYFTLVGKTNLGYVEFICDNNKNIDIYFGEWKTSSSKSTIFSGNGRNVVVEPIYNPDTGEDISTSLDFSYEPLYGIDRYINKVLIAPDLYTSLININTNYYSNEYYPEIIVLNPNTFHKKVNINLDSSSFEYKWSTEGSDFILVRYLEESNKKILQKIRIKGILSNTQSFNKMSIDFKDIKKLSLGYIMSNFKSFNSENELDRDHLGFKIIDNKTYYYDEDSKLVKGLININNSLFYFDPIE

Experiments:
Details in all cases: both partners purified
recombinant Rac1 = recombinant Rac1 (UniProt P63000 1-192); test: MST
TcdA^1–1874-EGFP = molecular target: B1; test: MST
[1] = molecular target: GST-fused TcdA CROPs (combined repetitive oligopeptides of Clostridium difficile toxin A) (Clostridium difficile (strain VPI 10463), UniProt P16154 1875-2710); test: pull-down

Binder: B1
- Kd (recombinant Rac1): 3320 ± 360 nM

Binder: B2
- Kd (TcdA^1–1874-EGFP): 1440 ± 70 nM

Binder: B3
- binding result [1]: binds
